# According to paper PMC10872493:
# Values joined by “and” are separate entries in the source; they are usually repeats but may differ in a detail not shown here. Identical values can stand only once.
# What was measured:
# [1] = target: CP α1N44C β2E84C, labeled with donor and acceptor dyes (single-molecule FRET construct) (mouse) (UniProt Q5RKN9); test: single-molecule FRET titration
# [2] = target: CP α1S9C β2S161C, labeled with donor and acceptor dyes (single-molecule FRET construct) (mouse) (UniProt Q5RKN9); test: single-molecule FRET titration
Kd [1],Kd [2] [nM],Substance
10 nM and 11 nM,–,CKIP-1 CPI-motif peptide
–,1.4,WASHCAP CPI-motif peptide
